For one series, the system named is C. difficile. In words: Mouse model for parenteral ampicillin-induced disruption of colonization resistance against C. difficile. Format: in vivo, C57BL/6 mice. As to conditions: single daily dose, 200 mg/kg intraperitoneal, 3 days, 5×10^3 spores 24 hours after last dose. The method, then:
FIGS. 7A-7C. Mouse model for parenteral ampicillin-induced dysbiosis and the disruption of colonization resistance against C. difficile. FIG. 7A. A 3-day intraperitoneal ampicillin administration regimen is evaluated for its effects in abolishing colonization resistance against 5×10^3 spores of C. difficile at 24 hours after the last ampicillin dose. C. difficile density in feces is evaluated 24 hours after the infection. FIG. 7B. […] FIG. 7C. Dose-dependency of single daily intraperitoneal ampicillin injections in the disruption of colonization resistance against C. difficile.
L. lactis spTEM1 protects the diversity and composition of gut the microbiota in an ampicillin-induced dysbiosis murine model. To test the efficacy of L. lactis spTEM1 in preventing ampicillin-induced dysbiosis, a mouse model was developed that utilizes susceptibility to C. difficile infection as an endpoint indication of gut dysbiosis. […] Based on this antibiotic regimen, the inventors devised a probiotic intervention aimed at populating the mouse gut with L. lactis spTEM1 while ampicillin circulates in the body (FIG. 3A). […]
C. difficile infection. […] The number of colony forming units (CFU) was counted using TCCFA plates supplemented with 50 μg/mL Erythromycin at 37° C. under anaerobic conditions, as previously reported.^26

Series [1] in a line: Nitrocefin hydrolysis assay for β-lactamase activity in culture supernatants. Format: biochemical. The following applies: 0.1 mM nitrocefin, absorbance at 486 nm. The text has this: A L. lactis strain was generated that is able to inactivate β-lactam antibiotics in its surroundings by secreting a split enzyme that is encoded in a two-gene biosynthesis pathway. By splitting β-lactam degradation into a genetically unlinked trait the selective advantage conferred upon a single locus was removed, thereby limiting the possible spread of the engineered trait in the population through a single HGT event. To achieve this, a heterodimeric version of the TEM1 β-lactamase (spTEM1) that regains its activity when reconstituted in the extracellular environment was generated.
β-lactamase assay. Nitrocefin (BioVision) was dissolved in DMSO to make a 1 mM stock. It was added to samples bacterial culture supernatant in a clear-bottom 96-well plate to a final concentration of 0.1 mM. The plate was placed in a spectrophotometer SpectraMaX™ M5 (Molecular Devices) to read absorbance at 486 nm over time.

A further series concerns E. coli. The series is described as follows: Cell density-dependent survival/growth on ampicillin, E. coli expressing spTEM1 elements. Format: cell-based, Escherichia coli. The text has this:
FIGS. 2A-2B. […] FIG. 2A. Cell density-dependent growth on ampicillin. β-lactamases in the periplasm of Gram-negative bacteria i.e. E. coli, confer selective advantage to single-cells. Survival to ampicillin is an emergent property of the of the L. lactis spTEM1 population and not of single cells. Diffusion from the cell surface precludes protection to the producer cell when the population density is low. FIG. 2B. Estimation of the ampicillin survival density threshold in prototypical Gram-negative and Gram-positive strains expressing elements of the spTEM1 system.
The spTEM1 β-lactamase system is not amenable to HGT. Stable acquisition of a new genetic trait by HGT requires both the physical mobilization of DNA into the recipient cell and that the expression of the newly obtained genetic material provides enough selective advantage to outcompete the rest of the population. While encoding the spTEM1 β-lactamase system in separate genetic loci reduces the likelihood of transfer to a single recipient cell, the scenario of simultaneous acquisition of the two β-lactamase fragments cannot be completely ruled out. The inventors investigated whether stable acquisition of the spTEM1 β-lactamase genes to a Gram-negative bacterium confers a fitness advantage in the presence of ampicillin.
Bacterial strains. […]

The target of series [2] is T1, β lactamase fragment (BLF) 2 of TEM1 β-lactamase, without SpyCatcher.
T1 chain: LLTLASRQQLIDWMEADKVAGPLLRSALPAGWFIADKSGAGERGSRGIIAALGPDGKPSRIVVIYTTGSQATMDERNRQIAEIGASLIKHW

Entries after “also recorded” stand apart in the source; their conditions may differ.

In the case of `CC1(C)S[C@@H]2[C@H](NC(=O)[C@H](N)c3ccccc3)C(=O)N2[C@H]1C(=O)O` [ampicillin], the “disruption of colonization resistance against C. difficile” value in the series on C. difficile is “sufficient to abrogate colonization resistance; also recorded: enough to sensitize the mouse gut to robust C. difficile colonization”.

B1: ST-BLF-1: SpyTag fused to TEM1 β-lactamase fragment BLF1 with usp45 secretion signal (SEQ ID NO: 4) (protein)
chain: MKKKIISAILMSTVILSAAAPLSGVYAAHIVMVDAYKPTKGGGGSGGGGSMHPETLVKVKDAEDQLGARVGYIELDLNSGKILESFRPEERFPMMSTFKVLLCGAVLSRIDAGQEQLGRRIHYSQNDLVEYSPVTEKHLTDGMTVRELCSAAITMSDNTAANLLLTTIGGPKELTAFLHNMGDHVTRLDRWEPELNEAIPNDERDTTTPVAMATTLRKLLTG
For the molecule B1, the “β-lactamase activity (nitrocefin hydrolysis)” value in series [1] is “do not display β-lactamase activity”.

B2: TEM1 β-lactamase: Intact TEM1 β-lactamase with periplasmic localization in E. coli (protein, UniProt P62593 24-286, looked up)
Beta-lactamase TEM: HPETLVKVKDAEDQLGARVGYIELDLNSGKILESFRPEERFPMMSTFKVLLCGAVLSRVDAGQEQLGRRIHYSQNDLVEYSPVTEKHLTDGMTVRELCSAAITMSDNTAANLLLTTIGGPKELTAFLHNMGDHVTRLDRWEPELNEAIPNDERDTTMPAAMATTLRKLLTGELLTLASRQQLIDWMEADKVAGPLLRSALPAGWFIADKSGAGERGSRGIIAALGPDGKPSRIVVIYTTGSQATMDERNRQIAEIGASLIKHW
As for B2, the “growth in ampicillin as single colonies” value in the series with E. coli is “enables the growth in ampicillin as single colonies”.

B3: β lactamase fragment (BLF) 1 of TEM1 β-lactamase, without SpyTag (protein)
chain: MHPETLVKVKDAEDQLGARVGYIELDLNSGKILESFRPEERFPMMSTFKVLLCGAVLSRIDAGQEQLGRRIHYSQNDLVEYSPVTEKHLTDGMTVRELCSAAITMSDNTAANLLLTTIGGPKELTAFLHNMGDHVTRLDRWEPELNEAIPNDERDTTTPVAMATTLRKLLTG
B3: the “β-lactamase activity in culture supernatants (nitrocefin)” value in series [2] is “slow in reconstituting and show minimal β-lactamase activity”.

Source of the values: US20240024383A1, “ENGINEERED PROBIOTIC COMPOSITIONS AND USES THEREOF” (priority 2020, published 2024).
